Results taken from patent US20200024330A1.

Experiments:
Test in all cases: cell-based or functional assay
[1] = molecular target: HIV-1 92BR020 envelope glycoprotein (Env) on pseudovirus (HIV-1)
[2] = molecular target: HIV-1 92RW020 envelope glycoprotein (Env) on pseudovirus (HIV-1)
[3] = molecular target: HIV-1 Env of isolate 6535.3 (HIV-1)
[4] = molecular target: HIV-1 Env of isolate 92BR020 (HIV-1)
[5] = molecular target: HIV-1 Env of isolate 92RW008 (clade A), on pseudovirus (HIV-1)
[6] = molecular target: HIV-1 Env of isolate 92RW009 (clade A), on pseudovirus (HIV-1)
[7] = molecular target: HIV-1 Env of isolate 92TH021 (pseudovirus) (HIV-1)
[8] = molecular target: HIV-1 Env of isolate 92UG001 (subtype D), on pseudovirus (HIV-1)
[9] = molecular target: HIV-1 Env of isolate 92UG005 (subtype D), on pseudovirus (HIV-1)
[10] = molecular target: HIV-1 Env of isolate 92UG024 (subtype D), on pseudovirus (HIV-1)
[11] = molecular target: HIV-1 Env of isolate 92UG031 (pseudovirus) (HIV-1)
[12] = molecular target: HIV-1 Env of isolate 92UG037 (pseudovirus) (HIV-1)
[13] = molecular target: HIV-1 Env of isolate 92UG046 (subtype D), on pseudovirus (HIV-1)
[14] = molecular target: HIV-1 Env of isolate 92UG114 (subtype D), on pseudovirus (HIV-1)
[15] = molecular target: HIV-1 Env of isolate 92WR020 (pseudovirus) (HIV-1)
[16] = molecular target: HIV-1 Env of isolate 92WR021 (pseudovirus) (HIV-1)
[17] = molecular target: HIV-1 Env of isolate 92WR024 (pseudovirus) (HIV-1)
[18] = molecular target: HIV-1 Env of isolate 92WR026 (pseudovirus) (HIV-1)
[19] = molecular target: HIV-1 Env of isolate 93TH305 (HIV-1)
[20] = molecular target: HIV-1 Env of isolate 93UG077 (pseudovirus) (HIV-1)
[21] = molecular target: HIV-1 Env of isolate 93WR029 (pseudovirus) (HIV-1)
[22] = molecular target: HIV-1 Env of isolate 94 KE 105 (pseudovirus) (HIV-1)
[23] = molecular target: HIV-1 Env of isolate 94UG103 (pseudovirus) (HIV-1)
[24] = molecular target: HIV-1 Env of isolate 98CN006 (subtype CRF08 BC), on pseudovirus (HIV-1)
[25] = molecular target: HIV-1 Env of isolate 98CN009 (subtype CRF07_BC), on pseudovirus (HIV-1)
[26] = molecular target: HIV-1 Env of isolate APV_13 (HIV-1)
[27] = molecular target: HIV-1 Env of isolate APV_17 (HIV-1)
[28] = molecular target: HIV-1 Env of isolate APV_6 (HIV-1)
[29] = molecular target: HIV-1 Env of isolate CAAN.A2 (HIV-1)
[30] = molecular target: HIV-1 Env of isolate CMU02 (pseudovirus) (HIV-1)
[31] = molecular target: HIV-1 Env of isolate JRFL (HIV-1)
[32] = molecular target: HIV-1 Env of isolate MG RM-A-005 (pseudovirus) (HIV-1)
[33] = molecular target: HIV-1 Env of isolate MG RM-A-006 (pseudovirus) (HIV-1)
[34] = molecular target: HIV-1 Env of isolate MG RM-A-007 (pseudovirus) (HIV-1)
[35] = molecular target: HIV-1 Env of isolate MG RM-A-008 (pseudovirus) (HIV-1)
[36] = molecular target: HIV-1 Env of isolate MG RM-A-009 (pseudovirus) (HIV-1)
[37] = molecular target: HIV-1 Env of isolate MG RM-A-010 (pseudovirus) (HIV-1)
[38] = molecular target: HIV-1 Env of isolate MG RM-A-011 (pseudovirus) (HIV-1)
[39] = molecular target: HIV-1 Env of isolate MG RM-A-012 (pseudovirus) (HIV-1)
[40] = molecular target: HIV-1 Env of isolate MG RM-A-013 (pseudovirus) (HIV-1)
[41] = molecular target: HIV-1 Env of isolate MG RM-A-014 (pseudovirus) (HIV-1)
[42] = molecular target: HIV-1 Env of isolate MGRM-AE-001 (pseudovirus) (HIV-1)
[43] = molecular target: HIV-1 Env of isolate MGRM-AE-002 (pseudovirus) (HIV-1)
[44] = molecular target: HIV-1 Env of isolate MGRM-AE-003 (pseudovirus) (HIV-1)
[45] = molecular target: HIV-1 Env of isolate MGRM-AE-004 (pseudovirus) (HIV-1)
[46] = molecular target: HIV-1 Env of isolate MGRM-AE-005 (pseudovirus) (HIV-1)
[47] = molecular target: HIV-1 Env of isolate MGRM-AE-006 (pseudovirus) (HIV-1)
[48] = molecular target: HIV-1 Env of isolate MGRM-Chronic-B-001 (HIV-1)
[49] = molecular target: HIV-1 Env of isolate MGRM-Chronic-B-002 (HIV-1)
[50] = molecular target: HIV-1 Env of isolate MGRM-Chronic-B-003 (HIV-1)
[51] = molecular target: HIV-1 Env of isolate MGRM-Chronic-B-004 (HIV-1)
[52] = molecular target: HIV-1 Env of isolate MGRM-Chronic-B-008 (HIV-1)
[53] = molecular target: HIV-1 Env of isolate MGRM-D-001 (subtype D), on pseudovirus (HIV-1)
[54] = molecular target: HIV-1 Env of isolate MGRM-D-002 (subtype D), on pseudovirus (HIV-1)
[55] = molecular target: HIV-1 Env of isolate MGRM-D-003 (subtype D), on pseudovirus (HIV-1)
[56] = molecular target: HIV-1 Env of isolate MGRM-D-004 (subtype D), on pseudovirus (HIV-1)
[57] = molecular target: HIV-1 Env of isolate MGRM-D-005 (subtype D), on pseudovirus (HIV-1)
[58] = molecular target: HIV-1 Env of isolate MGRM-D-008 (subtype D), on pseudovirus (HIV-1)
[59] = molecular target: HIV-1 Env of isolate VLGCA1 (pseudovirus) (HIV-1)

Chain of 4980_N08 (PGT-143) (antibody) (VH): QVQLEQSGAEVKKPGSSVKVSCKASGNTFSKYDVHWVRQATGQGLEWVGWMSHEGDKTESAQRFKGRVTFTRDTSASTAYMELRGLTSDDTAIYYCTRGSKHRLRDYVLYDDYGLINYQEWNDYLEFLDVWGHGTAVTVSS
Chain of 4980_N08 (PGT-143) (antibody) (VL): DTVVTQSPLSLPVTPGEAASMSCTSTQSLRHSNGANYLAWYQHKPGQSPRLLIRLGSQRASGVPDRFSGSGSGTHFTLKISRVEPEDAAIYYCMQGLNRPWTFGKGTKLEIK
Chain of 4970_K22 (PGT-144) (antibody) (VH): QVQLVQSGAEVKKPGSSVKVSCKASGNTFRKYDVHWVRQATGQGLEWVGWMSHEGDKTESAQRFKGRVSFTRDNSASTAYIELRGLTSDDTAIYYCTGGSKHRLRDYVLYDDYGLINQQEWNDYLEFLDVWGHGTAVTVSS
Chain of 4970_K22 (PGT-144) (antibody) (VL): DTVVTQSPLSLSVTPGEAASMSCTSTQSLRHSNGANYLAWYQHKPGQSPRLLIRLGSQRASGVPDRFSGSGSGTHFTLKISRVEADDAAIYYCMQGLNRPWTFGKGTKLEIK

4970_K22 (PGT-144) (antibody)
IC50 (ug/ml), neutralizing activity [1]: > 10 µg/mL | IC50 (ug/ml), neutralizing activity [2]: > 10 µg/mL | IC50 [3]: > 50 µg/mL | IC50 [4]: 44 µg/mL | IC50, single-round pseudovirus neutralization [5]: > 50 µg/mL | IC50, single-round pseudovirus neutralization [6]: 0.893 µg/mL | IC50 (µg/mL), pseudovirus neutralization [7]: 0.052 µg/mL | IC50, pseudovirus neutralization [8]: > 50 µg/mL | IC50, pseudovirus neutralization [9]: > 50 µg/mL | IC50, pseudovirus neutralization [10]: > 50 µg/mL | IC50 (µg/mL), pseudovirus neutralization [11]: 2.17 µg/mL | IC50 (µg/mL), pseudovirus neutralization [12]: 8.24 µg/mL | IC50, pseudovirus neutralization [13]: > 50 µg/mL | IC50, pseudovirus neutralization [14]: > 50 µg/mL | IC50 (µg/mL), pseudovirus neutralization [15]: > 50 µg/mL | IC50 (µg/mL), pseudovirus neutralization [16]: > 50 µg/mL | IC50 (µg/mL), pseudovirus neutralization [17]: 16.3 µg/mL | IC50 (µg/mL), pseudovirus neutralization [18]: 32.7 µg/mL | IC50 [19]: > 50 µg/mL | IC50 (µg/mL), pseudovirus neutralization [20]: > 50 µg/mL | IC50 (µg/mL), pseudovirus neutralization [21]: 4.39 µg/mL | IC50 (µg/mL), pseudovirus neutralization [22]: 0.29 µg/mL | IC50 (µg/mL), pseudovirus neutralization [23]: > 50 µg/mL | IC50, pseudovirus neutralization [24]: > 50 µg/mL | IC50, pseudovirus neutralization [25]: > 50 µg/mL | IC50 [26]: > 50 µg/mL | IC50 [27]: 10.3 µg/mL | IC50 [28]: > 50 µg/mL | IC50 [29]: > 50 µg/mL | IC50 (µg/mL), pseudovirus neutralization [30]: > 50 µg/mL | IC50 [31]: > 50 µg/mL | IC50 (µg/mL), pseudovirus neutralization [32]: 18.6 µg/mL | IC50 (µg/mL), pseudovirus neutralization [33]: > 50 µg/mL | IC50 (µg/mL), pseudovirus neutralization [34]: > 50 µg/mL | IC50 (µg/mL), pseudovirus neutralization [35]: > 50 µg/mL | IC50 (µg/mL), pseudovirus neutralization [36]: 2.83 µg/mL | IC50 (µg/mL), pseudovirus neutralization [37]: 2.79 µg/mL | IC50 (µg/mL), pseudovirus neutralization [38]: > 50 µg/mL | IC50 (µg/mL), pseudovirus neutralization [39]: > 50 µg/mL | IC50 (µg/mL), pseudovirus neutralization [40]: > 50 µg/mL | IC50 (µg/mL), pseudovirus neutralization [41]: > 50 µg/mL | IC50 (µg/mL), pseudovirus neutralization [42]: > 50 µg/mL | IC50 (µg/mL), pseudovirus neutralization [43]: > 50 µg/mL | IC50 (µg/mL), pseudovirus neutralization [44]: > 50 µg/mL | IC50 (µg/mL), pseudovirus neutralization [45]: 0.104 µg/mL | IC50 (µg/mL), pseudovirus neutralization [46]: > 50 µg/mL | IC50 (µg/mL), pseudovirus neutralization [47]: > 50 µg/mL | IC50 [48]: > 50 µg/mL | IC50 [49]: > 50 µg/mL | IC50 [50]: 7.41 µg/mL | IC50 [51]: 9.41 µg/mL | IC50 [52]: > 50 µg/mL | IC50, pseudovirus neutralization [53]: > 50 µg/mL | IC50, pseudovirus neutralization [54]: > 50 µg/mL | IC50, pseudovirus neutralization [55]: > 50 µg/mL | IC50, pseudovirus neutralization [56]: > 50 µg/mL | IC50, pseudovirus neutralization [57]: 14.8 µg/mL | IC50, pseudovirus neutralization [58]: 9.85 µg/mL | IC50 (µg/mL), pseudovirus neutralization [59]: > 50 µg/mL

4980_N08 (PGT-143) (antibody)
IC50 (ug/ml), neutralizing activity [1]: > 10 µg/mL | IC50 (ug/ml), neutralizing activity [2]: > 10 µg/mL | IC50 [3]: > 50 µg/mL | IC50 [4]: 25.9 µg/mL | IC50, single-round pseudovirus neutralization [5]: 0.385 µg/mL | IC50, single-round pseudovirus neutralization [6]: 0.01 µg/mL | IC50 (µg/mL), pseudovirus neutralization [7]: 0.003 µg/mL | IC50, pseudovirus neutralization [8]: > 50 µg/mL | IC50, pseudovirus neutralization [9]: > 50 µg/mL | IC50, pseudovirus neutralization [10]: > 50 µg/mL | IC50 (µg/mL), pseudovirus neutralization [11]: 0.095 µg/mL | IC50 (µg/mL), pseudovirus neutralization [12]: 0.854 µg/mL | IC50, pseudovirus neutralization [13]: > 50 µg/mL | IC50, pseudovirus neutralization [14]: > 50 µg/mL | IC50 (µg/mL), pseudovirus neutralization [15]: > 50 µg/mL | IC50 (µg/mL), pseudovirus neutralization [16]: > 50 µg/mL | IC50 (µg/mL), pseudovirus neutralization [17]: 0.122 µg/mL | IC50 (µg/mL), pseudovirus neutralization [18]: 5.36 µg/mL | IC50 [19]: 17.3 µg/mL | IC50 (µg/mL), pseudovirus neutralization [20]: > 50 µg/mL | IC50 (µg/mL), pseudovirus neutralization [21]: 0.053 µg/mL | IC50 (µg/mL), pseudovirus neutralization [22]: 0.368 µg/mL | IC50 (µg/mL), pseudovirus neutralization [23]: > 50 µg/mL | IC50, pseudovirus neutralization [24]: > 50 µg/mL | IC50, pseudovirus neutralization [25]: 10.2 µg/mL | IC50 [26]: > 50 µg/mL | IC50 [27]: 1.11 µg/mL | IC50 [28]: 14 µg/mL | IC50 [29]: > 50 µg/mL | IC50 (µg/mL), pseudovirus neutralization [30]: > 50 µg/mL | IC50 [31]: > 50 µg/mL | IC50 (µg/mL), pseudovirus neutralization [32]: 7.48 µg/mL | IC50 (µg/mL), pseudovirus neutralization [33]: > 50 µg/mL | IC50 (µg/mL), pseudovirus neutralization [34]: > 50 µg/mL | IC50 (µg/mL), pseudovirus neutralization [35]: > 50 µg/mL | IC50 (µg/mL), pseudovirus neutralization [36]: 0.05 µg/mL | IC50 (µg/mL), pseudovirus neutralization [37]: 0.019 µg/mL | IC50 (µg/mL), pseudovirus neutralization [38]: > 50 µg/mL | IC50 (µg/mL), pseudovirus neutralization [39]: > 50 µg/mL | IC50 (µg/mL), pseudovirus neutralization [40]: 9.24 µg/mL | IC50 (µg/mL), pseudovirus neutralization [41]: 1.07 µg/mL | IC50 (µg/mL), pseudovirus neutralization [42]: > 50 µg/mL | IC50 (µg/mL), pseudovirus neutralization [43]: > 50 µg/mL | IC50 (µg/mL), pseudovirus neutralization [44]: > 50 µg/mL | IC50 (µg/mL), pseudovirus neutralization [45]: 0.002 µg/mL | IC50 (µg/mL), pseudovirus neutralization [46]: > 50 µg/mL | IC50 (µg/mL), pseudovirus neutralization [47]: > 50 µg/mL | IC50 [48]: > 50 µg/mL | IC50 [49]: > 50 µg/mL | IC50 [50]: 0.854 µg/mL | IC50 [51]: 0.395 µg/mL | IC50 [52]: > 50 µg/mL | IC50, pseudovirus neutralization [53]: > 50 µg/mL | IC50, pseudovirus neutralization [54]: > 50 µg/mL | IC50, pseudovirus neutralization [55]: > 50 µg/mL | IC50, pseudovirus neutralization [56]: > 50 µg/mL | IC50, pseudovirus neutralization [57]: 1.41 µg/mL | IC50, pseudovirus neutralization [58]: 0.153 µg/mL | IC50 (µg/mL), pseudovirus neutralization [59]: 17.4 µg/mL
